Source: publication PMC6980855
Changes are numbered by the printed parent chain. Names and notes keep the numbering of the source. Blank lines part the entries; values can stand above or below the binder they belong to.

Assays:
[1] = target: Bcl-XL (single cysteine 152C, Alexa647-labeled, recombinant), Q07817-1; experiment: FRET; details: chain shown with the change, 20 nM Alexa568-labeled BimL mutant (FRET donor), Alexa647-labeled Bcl-XL acceptor
[2] = target: Bax (single cysteine 126C, Alexa647-labeled, recombinant), Q07812; experiment: FRET; details: chain shown with the change, 20 nM Alexa568-labeled BimL mutant (FRET donor), Alexa647-labeled Bax acceptor
[3] = membranes present (liposomes), apparent Kd, parent: 1±1
[4] = membranes present (liposomes), apparent Kd, parent: 29±1

Chain of Bax (single cysteine 126C, Alexa647-labeled, recombinant), Q07812 (Q07812 whole entry): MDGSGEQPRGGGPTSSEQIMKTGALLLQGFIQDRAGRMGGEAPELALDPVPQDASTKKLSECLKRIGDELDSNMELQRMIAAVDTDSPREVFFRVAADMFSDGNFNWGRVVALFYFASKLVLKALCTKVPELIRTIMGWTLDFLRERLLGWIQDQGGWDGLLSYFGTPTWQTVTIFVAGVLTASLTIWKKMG
Chain of Bcl-XL (single cysteine 152C, Alexa647-labeled, recombinant), Q07817-1 (Q07817 whole entry): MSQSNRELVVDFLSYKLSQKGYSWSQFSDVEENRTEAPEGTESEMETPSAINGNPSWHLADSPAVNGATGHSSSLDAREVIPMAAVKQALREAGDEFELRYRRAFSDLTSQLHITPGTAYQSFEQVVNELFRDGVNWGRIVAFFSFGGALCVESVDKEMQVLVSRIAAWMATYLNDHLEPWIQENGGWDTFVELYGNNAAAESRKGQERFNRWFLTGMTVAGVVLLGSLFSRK

B1: BimL (single cysteine Q41C, Alexa568-labeled, recombinant) I90E; L94E; I97E; F101E (protein)
chain: MHHHHHHGGSGGTGGSENLYFQGTMAKQPSDVSSECDREGGQLQPAERPPQLRPGAPTSLQTEPCDRSPAPMSCDKSTQTPSPPCQAFNHYLSAMASIRQSQEEPEDLRPEIREAQEERREGDEENETYTRRVFANDYREAEDHPQMVILQLLRFIFRLVWRRH
- Kd ([1]; in solution, parent: 8±0.4): > 1 µM
- Kd [1, 3]: > 1 µM
- Kd ([2]; in solution, parent: 59±7): > 1 µM
- Kd [2, 4]: > 1 µM

B2: BimL (single cysteine Q41C, Alexa568-labeled, recombinant) R130A; R134A (protein)
chain: B1 chain with E114I, E118L, E121I, E125F, R154A, R158A
- Kd [1, 3]: 0.02 µM
- Kd [2, 4]: 0.064 µM

Binders with a lower Kd [1, 3], results first:

- Kd [1, 3]: 0.005 µM
B3: BimL (single cysteine Q41C, Alexa568-labeled, recombinant) L129E (protein)
chain: B1 chain with E114I, E118L, E121I, E125F, L153E

- Kd ([1]; in solution, parent: 8±0.4): 0.01 µM
- Kd [1, 3]: 0.002 µM
B4: BimL (single cysteine Q41C, Alexa568-labeled, recombinant) I132E (protein)
chain: B1 chain with E114I, E118L, E121I, E125F, I156E

- Kd [1, 3]: 0.002 µM
- Kd [2, 4]: 0.095 µM
B5: BimL (single cysteine Q41C, Alexa568-labeled, recombinant) V124E (protein)
chain: B1 chain with E114I, E118L, E121I, E125F, V148E
